Results as given in patent US20200199081.
Where a chain is given by its changes, count along the chain named.

What was measured:
[1] = target: HA-tagged wild-type NRAS (HA-NRASWT)
[2] = target: HA-tagged NRASQ61R (HA-NRASQ61R)

B1: Flag-tagged STK19D89N (protein)
chain: MQKWFSAFDDAIIQRQWRANPSRGGGGVSFTKEVDTNVATGAPPRRQRVPGRACPWREPIRGRRGARPGGGDAGGTPGETVRHCSAPENPIFRFSSLHSYPFPGTIKSRDMSWKRHHLIPETFGVKRRRKRGPVESDPLRGEPGSARAAVSELMQLFPRGLFEDALPPIVLRSQVYSLVPDRTVADRQLKELQEQGEIRIVQLGFDLDAHGIIFTEDYRTRVCDCVLKACDGRPYAGAVQKFLASVLPACGDLSFQQDQMTQTFGFRDSEITHLVNAGVLTVRDAGSWWLAVPGAGRFIKYFVKGRQAVLSMVRKAKYRELLLSELLGRRAPVVVRLGLTYHVHDLIGAQLVDCISTTSGTLLRLPET
For B1, the “in vitro kinase assay, phosphorylation of NRAS” value (from here on “in vitro kinase assay … of NRAS”) [1] was “phosphorylation of purified recombinant NRAS was enhanced by STK19D89N to a higher extent than by STK19WT” and the “in vitro kinase assay … of NRAS” value [2] was “phosphorylation of purified recombinant NRAS was enhanced by STK19D89N to a higher extent than by STK19WT”.

B2: Flag-tagged STK19 wild type (STK19-Flag) (protein)
chain: B1 chain with N89D
With B2 the “in vitro kinase assay … of NRAS” value (HA-NRASQ61R/S89A) was “mutation of S89 to alanine (S89A) abolished phosphorylation of NRASWT and NRASQ61R”, the “in vitro kinase assay … of NRAS” value (HA-NRASS89A) was “mutation of S89 to alanine (S89A) abolished phosphorylation of NRASWT and NRASQ61R” and the “in vitro kinase assay, NRAS preloaded with GDP, GTP or GTPγS” value [1] was “a higher STK19-induced phosphorylation of the GTP- and GTPγS-loaded NRAS than GDP-loaded NRAS”. For the same protein, the “serine phosphorylation of NRAS (immunoblot after NRAS immunoprecipitation, HPMs)” value [1] was “only a marginal increase in phosphorylation of NRASWT was detected”.

B3: Flag-tagged kinase-dead STK19K317P (protein)
chain: B1 chain with N89D, K317P
B3 was tested, and the “phosphorylated serine levels in NRAS (immunoblot)” value [2] was “The upregulation of phosphorylated serine levels in NRAS was also diminished by overexpression of a kinase-dead STK19 K317P mutant”.
